The results in this text go back to patent US20230203158A1 (FLAGSHIP PIONEERING INNOVATIONS VII, published 2023).

Experiment [1] addresses T1, Murine DSG1 (NCBI accession NP_034209.2) with a c-Myc epitope tag at the C terminus, transiently expressed in … (mouse, UniProt Q61495 50-1057).
T1 construct: whole, on cells; also called mouse DSG1; murine desmoglein-1
T1 sequence (looked up): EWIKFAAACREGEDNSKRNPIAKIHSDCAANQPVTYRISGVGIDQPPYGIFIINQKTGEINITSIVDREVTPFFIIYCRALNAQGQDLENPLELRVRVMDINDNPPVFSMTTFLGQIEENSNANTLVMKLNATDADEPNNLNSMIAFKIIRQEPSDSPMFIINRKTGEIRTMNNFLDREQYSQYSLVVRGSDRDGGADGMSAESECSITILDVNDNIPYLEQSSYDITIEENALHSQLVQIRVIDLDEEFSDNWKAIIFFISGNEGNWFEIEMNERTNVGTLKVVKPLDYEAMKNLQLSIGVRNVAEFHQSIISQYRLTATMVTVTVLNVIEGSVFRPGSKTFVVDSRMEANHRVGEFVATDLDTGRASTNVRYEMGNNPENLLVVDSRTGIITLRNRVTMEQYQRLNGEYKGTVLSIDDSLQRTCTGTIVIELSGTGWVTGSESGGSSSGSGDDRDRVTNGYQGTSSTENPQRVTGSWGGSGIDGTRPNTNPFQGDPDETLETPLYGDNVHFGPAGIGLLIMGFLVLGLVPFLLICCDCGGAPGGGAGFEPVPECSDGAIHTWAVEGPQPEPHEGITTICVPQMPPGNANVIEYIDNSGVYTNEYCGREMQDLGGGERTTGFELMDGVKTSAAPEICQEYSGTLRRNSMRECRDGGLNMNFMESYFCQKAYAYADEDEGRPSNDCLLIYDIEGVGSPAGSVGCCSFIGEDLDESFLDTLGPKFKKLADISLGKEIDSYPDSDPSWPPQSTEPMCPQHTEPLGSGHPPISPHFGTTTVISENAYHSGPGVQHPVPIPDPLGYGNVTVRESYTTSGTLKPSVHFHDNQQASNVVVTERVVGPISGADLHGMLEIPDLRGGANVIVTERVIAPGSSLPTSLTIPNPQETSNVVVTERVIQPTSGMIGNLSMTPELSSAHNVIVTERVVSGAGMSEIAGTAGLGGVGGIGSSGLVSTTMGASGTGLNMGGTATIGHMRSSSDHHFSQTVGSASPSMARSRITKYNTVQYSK
The experiment can be described thus: flow cytometry on RAW 264.7 cells transiently expressing murine DSG1. From the text: Murine DSG1 (NCBI accession NP_034209.2) with a c-Myc epitope tag at the protein C terminus was transiently expressed in RAW 264.7 cells using LIPOFECTAMINE™ 3000 (ThermoFisher Scientific) according to the manufacturer's protocol.
In general terms: Flow cytometry measures light scatter and fluorescence of single cells or particles in a stream.

Experiment [2] addresses IL-10 receptor of HEK-BLUE IL-10 cells (the cells express all the components of the IL-10 signaling pathway). Briefly: cell-based or functional assay.
For experiment [3], the target named is T2, recombinant His-tagged human IL-10Ra (Creative Biomart) (human, UniProt Q13651 22-235).
T2 construct: also called IL-10 receptor alpha; not shown: His tag
T2 sequence (looked up): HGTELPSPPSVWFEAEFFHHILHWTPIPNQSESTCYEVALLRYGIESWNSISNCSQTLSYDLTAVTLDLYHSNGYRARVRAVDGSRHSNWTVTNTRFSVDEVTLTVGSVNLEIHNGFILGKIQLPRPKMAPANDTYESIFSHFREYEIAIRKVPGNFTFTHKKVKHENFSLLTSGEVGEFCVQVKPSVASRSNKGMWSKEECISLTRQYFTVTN
The experiment can be described thus: ELISA, His-tagged human IL-10Ra coated at 1 µg/mL. The procedure: To test the binding of the IL-10/anti-DSG1 ANDbodies to IL-10 receptor alpha (IL-10Ra) by ELISA, recombinant His-tagged human IL-10Ra (Creative Biomart) was coated on NUNC-IMMUNO™ MAXISORP™ ELISA plates at 1 μg/mL concentration overnight. The next day, coated antigen was removed and the wells were blocked with 1% IgG-free BSA followed by incubation with 11 three-fold serially diluted anti-IL-10/anti-DSG1 ANDbodies (as provided above) with a starting concentration of 30 μg/mL. Bound antibody was detected with peroxidase-conjugated anti-human IgG antibodies with TMB and acid stop reagents.
For orientation: ELISA stands for enzyme-linked immunosorbent assay.

Experiment [4] has as its target T3, mouse CDH17 (NCBI accession NP 062727.1) with a c-Myc epitope tag at the C terminus, transiently expressed in … (mouse, UniProt Q9R100 26-827).
T3 construct: whole, on cells; also called cadherin 17
T3 sequence (looked up): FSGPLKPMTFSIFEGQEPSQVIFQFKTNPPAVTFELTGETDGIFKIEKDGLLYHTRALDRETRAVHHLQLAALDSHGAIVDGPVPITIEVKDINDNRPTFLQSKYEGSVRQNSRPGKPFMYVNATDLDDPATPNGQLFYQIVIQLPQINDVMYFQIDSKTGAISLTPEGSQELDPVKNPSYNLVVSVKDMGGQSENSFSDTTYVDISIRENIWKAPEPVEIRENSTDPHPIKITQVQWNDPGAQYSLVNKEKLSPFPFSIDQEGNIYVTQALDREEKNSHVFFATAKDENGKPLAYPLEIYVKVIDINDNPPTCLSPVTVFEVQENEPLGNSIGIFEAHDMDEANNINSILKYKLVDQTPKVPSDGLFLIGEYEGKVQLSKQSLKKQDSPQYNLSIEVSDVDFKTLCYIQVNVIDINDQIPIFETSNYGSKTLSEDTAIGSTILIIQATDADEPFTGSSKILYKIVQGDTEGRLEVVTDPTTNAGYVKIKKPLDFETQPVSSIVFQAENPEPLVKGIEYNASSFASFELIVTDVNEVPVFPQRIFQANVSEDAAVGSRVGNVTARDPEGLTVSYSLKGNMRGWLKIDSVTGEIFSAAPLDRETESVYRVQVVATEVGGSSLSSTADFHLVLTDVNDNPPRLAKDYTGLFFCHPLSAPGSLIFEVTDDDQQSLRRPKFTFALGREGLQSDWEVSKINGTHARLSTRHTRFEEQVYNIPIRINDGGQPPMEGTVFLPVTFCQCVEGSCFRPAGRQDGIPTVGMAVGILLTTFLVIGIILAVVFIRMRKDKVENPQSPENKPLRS
The experiment can be described thus: flow cytometry on RAW 264.7 cells transiently expressing mouse CDH17. From the text: To confirm binding activity and specificity, mouse CDH17 (NCBI accession NP 062727.1) with a c-Myc epitope tag at the protein C terminus was transiently expressed in RAW 264.7 cells using LIPOFECTAMINE™ 3000 (ThermoFisher Scientific) according to the manufacturer's protocol.

B1: PRO004 (anti-DSG1 antibody 3-07/1e on a human IgG1 LALA-PG backbone, lambda light chain) (antibody, V domains shown)
VH: QVQLVQSGGGLVQPGGSLRVSCAASGFTSNIFWMSWVRQAPGKGLEWVANIDEDGSEKNYVDSVKGRFTISRDNAKNSLYLQMNSLRAEDTAVYYCARESFYYGSGTYFDFWGQGTLVTVSS
VL: ELVVTQPPSVSGAPGQRVTISCTGSSSNIGAGYDVHWYQQLPGTAPKLLIYGNKNRPSGVPDRFSGSKSGTSASLAITGLRAEDEADYYCQSFDSSLGWVFGGGTQLTVLG
notes: human IgG1 with L234A, L235A, P329G
For B1, in experiment [1], the binding result is on record as “binds”.

B2: IL-10 Fc (Creative Biomart IL10-326H), recombinant human IL-10 fused to a human Fc domain (Fc fusion, UniProt P22301 19-178, looked up)
chain: SPGQGTQSENSCTHFPGNLPNMLRDLRDAFSRVKTFFQMKDQLDNLLLKESLLEDFKGYLGCQALSEMIQFYLEEVMPQAENQDPDIKAHVNSLGENLKTLRLRLRRCHRFLPCENKSKAVEQVKNAFNKLQEKGIYKAMSEFDIFINYIEAYMTMKIRN
notes: also called positive control IL-10 Fc; hIL-10 Fc fusion; not shown: human Fc domain and any linker of the bought product
In the case of B2, the “EC50 (pM), HEK-BLUE IL-10 signaling assay (SEAP)” value in experiment [2] was 50 pM. Also, the binding result in experiment [3] was “binds”.

B3: PRO061 (anti-CDH17 antibody MAB8524 on a human IgG1 LALA-PG backbone, kappa light chain) (antibody, V domains shown)
VH: QSLEESGGRLVTPGTPLTLTCTVSGFSLTSYDMNWVRQAPGKGLEWIGVVRGSGRTYYASWAKGRFTIARTSSTTVDLKMTSLTTGDTATYFCARGDANNNYYEFDIWGPGTLVTVSS
VL: QDMTQTPSPVSAAVGGTVTINCQSSQSVYGDAWLSWFQQKPGQPPKLLIYSASTLASGVPSRFKGSGSGTQFTLTISDLESDDAATYYCAGGYDGINDIRAFGGGTEVVVKR
As to B3, in experiment [4], the binding result is on record as “binds”.
